Columns and labels:
iPS cells (253G1 cells) = assay: iPS cell culture: evaluation of preservation stability; assay type: cell-based, human; conditions: stock preserved 3 or 4 weeks at 4° C. versus −80° C.; 20 ng/mL
Method: Basic FGF and VHH stocks were collected in a 1.5 mL microtube 3 or 4 weeks before culturing, and preserved in a refrigerator (4° C.). Hereinafter, all operations were the same as those in the cell growth evaluation procedure, except that for basic FGF and VHH, a medium was prepared so that the both were preserved at 20 ng/mL using both refrigeration (4° C.)- and freeze (−80° C.)-preservation conditions.

[1] = test system: mouse fibroblast cell line NIH/3T3; assay: Inhibition of growth factor activity of VHH homodimer by FGFR inhibitor (fibroblasts); assay type: cell-based; conditions: 10 and 100 ng/ml test substance plus FGFR kinase inhibitor
Text: Promotion of Fibroblast Growth by VHH (Homodimer)” described above.
It was examined whether the cell growth activities of bFGF and the single-domain antibody were inhibited by NPV-BGJ398 which is an FGFR kinase inhibitor.

[2] = test system: phospho-p44/42 MAPK (Erk½); assay: Agonist activity by In Cell ELISA in NIH3T3 cells; assay type: cell-based, mouse; conditions: 30 minutes stimulation, final dilution ratio 100-fold, relative to no stimulus = 1
Text: In order to verify the agonist activity of the purified VHH (monomer), the expression level of phospho-p44/42 MAPK (Erk½) was […] by using an In Cell ELISA method. VHH (monomer) was allowed to act on the cells such that the final dilution ratio was 100-fold. In addition, as a positive control, FGF2 (fibroblast growth factor (basic) (FGF-basic/bFGF/FGF2), human, recombinant, animal-derived substance-free (154aa): product code 068-05384; manufactured by Fujifilm Wako Pure Chemical Corporation: final concentration: 100 ng/mL) was used. The experimental procedure was as described below.
A D-MEM (D6429, manufactured by Sigma-Aldrich Co., LLC) medium including a 10% fetal bovine serum (S0400, manufactured by BWT) and 1% Penicillin-Streptomycin Mixed Solution, 26253-84, manufactured by Nacalai Tesque, Inc.) was prepared, NIH3T3 (CRL1658, ATCC) was suspended therein, and the suspension was seeded on a 96-well plate for cell culture at 1× 10^4 cells/well and cultured overnight at 37° C. with light shielded in a 5% CO2 incubator. The medium in each well was removed and the inside of each well was washed with a serum-free medium. […]

| Molecule | growth performance of iPS cells with additive preserved at 4° C. (iPS cells (253G1 cells)) | cell growth with addition of NPV-BGJ398 [1] | agonist activity (expression level of phospho-p44/42 MAPK (Erk½)) [2] |
| --- | --- | --- | --- |
| FGF2: fibroblast growth factor (basic), human, recombinant (154aa), positive control; SEQ ID NO: 58 [reference compound] | growth performance was significantly deteriorated | suppressed cell growth |  |
| VHH Clone #1: alpaca-derived VHH single-domain antibody (monomer) binding FGFR1, amino acid sequence SEQ ID NO: 17 (protein, VHH_Clone_#1) VHH: QLQLVESGGGSVQAGGSLRLSCAASRSLSRFNVWTWYRQAPVKQRELVASITKSGDTNYAESVKGRFIISRDDDKNTVYLQMNNLKSEDTGIYYCAGSYYSGSYLYPSPGGFSVWGQGTQVTVSS |  |  | none of the VHHs (monomers) have an agonist activity |
| #1-L4-#1: dimer of VHH #1 with linker L4 (GSEGKSSGSGSESKST), SEQ ID NO: 23 (protein, #1-L4-#1) VHH: QLQLVESGGGSVQAGGSLRLSCAASRSLSRFNVWTWYRQAPVKQRELVASITKSGDTNYAESVKGRFIISRDDDKNTVYLQMNNLKSEDTGIYYCAGSYYSGSYLYPSPGGFSVWGQGTQVTVSSGSEGKSSGSGSESKSTQLQLVESGGGSVQAGGSLRLSCAASRSLSRFNVWTWYRQAPVKQRELVASITKSGDTNYAESVKGRFIISRDDDKNTVYLQMNNLKSEDTGIYYCAGSYYSGSYLYPSPGGFSVWGQGTQVTVSS | exhibited growth performance similar to that of VHH preserved at −80 °C | suppressed cell growth |  |
| VHH Clone #2: alpaca-derived VHH single-domain antibody (monomer) binding FGFR1, amino acid sequence SEQ ID NO: 18 (protein, VHH_Clone_#2) VHH: QVQLVESGGGLVQAGGSLRLSCAVPGSIFRFNTMGWYRQPPGKQRELVAQMSRGGITKYGDSVKGRFTITRDNAKNTVHLQMNSLKPEDTAVYYCAGSYYSGSYYYPSPQGFSVWGQGTQVTVSP |  |  | none of the VHHs (monomers) have an agonist activity |

From US20240279618A1, “RECEPTOR TYROSINE KINASE AGONIST, COMPOSITION FOR CELL CULTURE MEDIUM, AND […] MAINTENANCE COMPOSITION” (SEKISUI CHEMICAL CO., LTD., priority 2021, published 2024)
